Tests used:
[1] = biological target: the molecule itself; assay: negative-stain EM reconstruction
[2] = biological target: amino-terminal poly-histidine-tagged Cas4 (Bacillus halodurans type I-C), co-expressed with untagged Cas1 (Bacillus halodurans); assay: negative-stain EM reconstruction

B1: untagged Cas1 (Bacillus halodurans type I-C), co-expressed with His6-Cas4 (natural protein, UniProt Q9KFX9 1-343, looked up)
chain: MKKLLNTLYVTQPDTYLSLDGDNVVLLKEQEKLGRLPLHNLEAIVGFGYTGASPALMGYCAERNISITFLTKNGRFLARVVGESRGNVVLRKTQYRISENDQESTKIARNFITGKVYNSKWMLERMTREHPLRVNVEQFKATSQLLSVMMQEIRNCDSLESLRGWEGQAAINYNKVFDQMILQQKEEFAFHGRSRRPPKDNVNAMLSFAYTLLANDVAAALETVGLDAYVGFMHQDRPGRASLALDLMEELRGLYADRFVLSLINRKEMTADGFYKKENGAVLMTDEARKTFLKAWQTKKQEKITHPYLGEKMSWGLVPYVQALLLARFLRGDLDEYPPFLWK
- binding result [1]: binds
- stoichiometry N (Cas1 per complex) [2]: 4
- stoichiometry N (Cas4 per complex) [2]: 2
